Among the data in article PMC10411625, “Rationally designed stapled peptides allosterically inhibit PTBP1–RNA-binding†” (Chemical Science, 2023) are Ki and Kd values, retold here.

Holding throughout (settings): both partners purified
Assay [1] has as its target T1, PTBP1 RRM1 and 2 combined (RRM12) (human).
T1 construct: Methods and construct limits are not in the main text (supplementary file)
Put plainly: fluorescence polarisation; competitive: peptide varied against RRM12 and the FAM-labelled RNA-2 tracer; Ki from loss of RNA binding.

Assay [2] deals with T2, PTBP1 RRM1 (single first RNA-recognition motif with the α3-helix) (human).
T2 chain: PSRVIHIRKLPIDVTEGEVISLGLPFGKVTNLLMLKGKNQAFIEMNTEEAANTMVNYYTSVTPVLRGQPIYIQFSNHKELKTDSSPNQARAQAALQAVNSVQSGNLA
Put plainly: MST; microscale thermophoresis of P-6F with the PTBP1 constructs.

Assay [3] has as its target PTBP1 RRM12–L151G mutant (human). The assay is described as above.
Assay [4] concerns the target T2, PTBP1 RRM1 (single first …). Put plainly: fluorescence polarisation; direct binding: FITC-labelled P-6F titrated with the PTBP1 construct.
Assay [5] addresses PTBP1 RRM12–L151G mutant (human). Described as above.

Positions of bridges follow the written chain, without caps; N, C: chain ends. Non-standard residues stand in square brackets, D forms with d. No end group written: not given here. S5 = C=CCCC[C@](C)(N)C(=O)O

For the molecule NQ[S5]RAQ[S5]ALQAVN-NH2 (staple 3-7; also: staple alkene reduced) [P-2, i, i + 4 hydrocarbon-stapled peptide derived from the PTBP1 α3-helix], in assay [1], the Ki came to 11.6 µM.

B1: P-6F, FITC-labeled variant of P-6 (peptide)
chain: NQARAQAALQAVN
modifications: also: stitched hydrocarbon staple linking residues 145, 149 and 153, FITC label, place not given here
For B1, the Kd worked out at 98.1 µM in assay [2], 44.5 µM with PTBP1 RRM12–L151G mutant [3], 18.6 µM in assay [4] and 20.4 µM in the assay with PTBP1 RRM12–L151G mutant [5].
